The values below come from patent US20200199234A1 (published 2020).

The target in assay [1] is T1, Hu N(A2-B2)A-avi-His, chimeric CEACAM1 protein with CEACAM5 domains A2 and B2 (human, biotinylated avi-tag (Example 2.2)).
T1 construct: also called hu N(A2-B2)A-avi-His B; human CEA (A2 domain)
T1 chain: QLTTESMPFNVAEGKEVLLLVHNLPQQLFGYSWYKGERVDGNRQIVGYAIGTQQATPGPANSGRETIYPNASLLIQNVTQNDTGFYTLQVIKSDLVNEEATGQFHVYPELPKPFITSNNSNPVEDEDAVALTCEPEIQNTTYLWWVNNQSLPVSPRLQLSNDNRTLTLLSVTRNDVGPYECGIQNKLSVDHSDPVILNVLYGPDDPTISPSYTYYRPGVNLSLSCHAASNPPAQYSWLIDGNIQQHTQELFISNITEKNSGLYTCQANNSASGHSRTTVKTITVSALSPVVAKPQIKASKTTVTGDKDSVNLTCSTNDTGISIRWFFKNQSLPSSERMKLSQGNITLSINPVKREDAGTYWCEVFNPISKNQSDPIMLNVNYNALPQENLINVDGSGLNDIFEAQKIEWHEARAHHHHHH
The assay is described as follows: SPR ProteOn, biotinylated antigen on NLC chip.

The target of assay [2] is T2, huCD28-Fc, dimeric human CD28 extracellular domain fused to human IgG1 Fc (knob/hole, PG-LALA), monovalent … (human, UniProt P10747 19-152, biotin on C-terminal avi tag).
T2 construct: also called biotinylated huCD28-Fc antigen; not shown: human IgG1 Fc fragment with hole and PG-LALA mutations; human IgG1 Fc fragment with knob and PG-LALA mutations
The assay is described as follows: from SPR KD values.

Assay [3] concerns the target human CD28 expressed on cells (CHO-k1 stably overexpressing human CD28; T cells in functional assays) (human, UniProt P10747 19-220). The assay is described as follows: cell-based or functional assay.

B1: Molecule M: CEA-CD28(SA) 1+1 format (bispecific antibody, human IgG1, kappa, L234A L235A)
light 1: not shown
heavy 1: not shown
heavy 2: QAVLTQPASLSASPGASASLTCTLRRGINVGAYSIYWYQQKPGSPPQYLLRYKSDSDKQQGSGVSSRFSASKDASANAGILLISGLQSEDEADYYCMIWHSGASAVFGGGTKLTVLSSASTKGPSVFPLAPSSKSTSGGTAALGCLVKDYFPEPVTVSWNSGALTSGVHTFPAVLQSSGLYSLSSVVTVPSSSLGTQTYICNVNHKPSNTKVDKKVEPKSCDKTHTCPPCPAPEAAGGPSVFLFPPKPKDTLMISRTPEVTCVVVDVSHEDPEVKFNWYVDGVEVHNAKTKPREEQYNSTYRVVSVLTVLHQDWLNGKEYKCKVSNKALGAPIEKTISKAKGQPREPQVCTLPPSRDELTKNQVSLSCAVKGFYPSDIAVEWESNGQPENNYKTTPPVLDSDGSFFLVSKLTVDKSRWQQGNVFSCSVMHEALHNHYTQKSLSLSP
light 2: EVQLVESGGGLVQPGRSLRLSCAASGFTVSSYWMHWVRQAPGKGLEWVGFIRNKANGGTTEYAASVKGRFTISRDDSKNTLYLQMNSLRAEDTAVYYCARDRGLRFYFDYWGQGTTVTVSSASVAAPSVFIFPPSDEQLKSGTASVVCLLNNFYPREAKVQWKVDNALQSGNSQESVTEQDSKDSTYSLSSTLTLSKADYEKHKVYACEVTHQGLSSPVTKSFNRGEC
notes: anti-CEA arm is Medi-565; also called P1AE3127
Molecule B1 came in with a Kd in assay [1] of 0.29 nM.

B2: FAP (4B9) - CD28 (CD28(SA)_Variant 8) 1+1 (bispecific antibody, human IgG1, kappa, L234A L235A)
heavy 1: EIVLTQSPGTLSLSPGERATLSCRASQSVTSSYLAWYQQKPGQAPRLLINVGSRRATGIPDRFSGSGSGTDFTLTISRLEPEDFAVYYCQQGIMLPPTFGQGTKVEIKSSASTKGPSVFPLAPSSKSTSGGTAALGCLVKDYFPEPVTVSWNSGALTSGVHTFPAVLQSSGLYSLSSVVTVPSSSLGTQTYICNVNHKPSNTKVDKKVEPKSCDKTHTCPPCPAPEAAGGPSVFLFPPKPKDTLMISRTPEVTCVVVDVSHEDPEVKFNWYVDGVEVHNAKTKPREEQYNSTYRVVSVLTVLHQDWLNGKEYKCKVSNKALGAPIEKTISKAKGQPREPQVCTLPPSRDELTKNQVSLSCAVKGFYPSDIAVEWESNGQPENNYKTTPPVLDSDGSFFLVSKLTVDKSRWQQGNVFSCSVMHEALHNHYTQKSLSLSP
light 1: EVQLLESGGGLVQPGGSLRLSCAASGFTFSSYAMSWVRQAPGKGLEWVSAIIGSGASTYYADSVKGRFTISRDNSKNTLYLQMNSLRAEDTAVYYCAKGWFGGFNYWGQGTLVTVSSASVAAPSVFIFPPSDEQLKSGTASVVCLLNNFYPREAKVQWKVDNALQSGNSQESVTEQDSKDSTYSLSSTLTLSKADYEKHKVYACEVTHQGLSSPVTKSFNRGEC
heavy 2: not shown
light 2: not shown
notes: also called P1AE3131
On to B2, for which, in assay [2], the “fold reduction of affinity compared to the parental CD28 clone” value was about 20 fold. Also, the “EC50 killing (nM), TCB-mediated killing of MV3 target cells” value in assay [3] was found to be 2.33 nM.
